Measurements published in the supplement of paper PMC12042874.
± gives the uncertainty stated by the source.

assay: amyloid nucleation score (Sup35N fusion, yeast selection) (log enrichment); library NNK1; higher = more nucleation; inactive = no reads after selection
Outline: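 Sup35N was fused to peptides of 20 random codons and expressed in psi-negative yeast, which were induced with 100 μM copper sulfate for 24 hours and then grown on medium lacking adenine and uracil for 7 days at 30°C. Plasmid inserts from input and output were sequenced on Illumina. The nucleation score is the DiMSum log enrichment of output over input reads, centred on the mode score of non-aggregating sequences. Sequences with under 100 input reads were left out, and random libraries had three technical output replicates.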

| Substance | amyloid nucleation score |
| --- | --- |
| YVDDGMCSAICYSTVNNMSN | 8.666 ± 0.047 |
| YVEFVFNIYSARFEWLLI | -0.463 ± 0.75 |
| YVGIPQCGDLKRRPLA | 0.116 ± 1.1 |
| YVGQGPGSLLTTGWVRYSL | -0.137 ± 0.6 |
| YVHQRGNNTSAMLAWVLPRH | -0.766 ± 0.5 |
| YVSAVGLWVVLYYMMRMCAS | inactive |
| YVSIYGQWVSSSCWTRRAYN | 0.415 ± 0.32 |
| YVSTIN | 0.629 ± 0.42 |
| YVSYVCLDWM | 6.7 ± 0.068 |
| YVTDVDF | inactive |
| YVVIAEPGYSRDMISLMERC | -1.16 ± 1.3 |
| YVVWDICKRVLLQWRYPPFS | -0.077 ± 1.7 |
| YVWDFRKLLYPAGWMSESVR | -0.346 ± 1 |
| YWDEIRCNSKNFDPCPFKAS | 0.54 ± 0.19 |
| YWGFGYPMFLNINMCLTSPE | 6.21 ± 0.091 |
| YWICRDTGSYDFCMMGMGKA | 0.335 ± 0.34 |
| YWKMRCM | 3.47 ± 0.19 |
| YWLSSVHSQSRVAK | -0.298 ± 1.7 |
| YWNDVAS | -0.931 ± 0.75 |
| YWNRRYIGTPLNM | -1.73 ± 2.7 |
| YWRNKGVVCGLCYDIVR | -0.019 ± 0.97 |
| YWRVVGITIWVVQDLIFGEG | -0.783 ± 1 |
| YYGYVLFQGFSM | 1.82 ± 0.19 |
| YYLIMP | 0.322 ± 0.41 |
| YYMLGYLDSYLWSENDLWMC | 0.642 ± 0.36 |
| YYNFLLIIFNCCKVMS | 3.5 ± 0.11 |
| YYNLTSGPFKGGCWQRYF | -0.205 ± 0.32 |
